# Test results published in article PMC9348755 (Science (New York, N.y.), 2022).
# Target: prefusion PentaPro (F817) SARS-CoV-2 S2 (SARS-CoV-2 (Wuhan-Hu-1 assumed), UniProt P0DTC2, stabilised)
# Assay: ELISA
# Conditions: both partners purified
row,Binder,binding result
1,"C13B8 mAb (antibody, V domains shown, also called Group 3 mAb; fusion peptide-specific mAb) VH: QVQLQESGPGLVQPSQTLTLTCTVSGDSISNEDYHWTWIRQHPGKGLEWMGYLQYSGNTNYNPSLKSRMTISVDTSKNQFSLRLNSVTAADTAVYFCATSIVLTGMSNKIQPFDYWGQGTLVTVSS VL: SYELTQPPSVSVSPGQMARITCSGEALPKKYAYWYQQKGGQFPVLVIYKDTERPSGIPERFSGSSSGTIVTLTISGVQPEDEADYYCLSADTSGTWVFGGGTKLTVL",binds
2,"VN01H1 mAb (antibody, V domains shown, also called Group 3 mAb; fusion peptide-specific mAb) VH: EVQLVESGGGLVLPGGSLRLSCSASGFTFSDFSMHWVRQSPGKGLEYVSAITSSGSSTYYPDSVKGRFTISRDNSKNTLYLQMGSLRVEDTAVYWCVKNSDVFRFPHLYFDVWGRGTLVTVSS VL: not shown",binds
3,"VP12E7 mAb (antibody, V domains shown, also called Group 3 mAb; fusion peptide-specific mAb) VH: QVQLVQSGGGVVQPGESLRLSCSGSGFTFNNYIMHWVRQAPGQGLDYVSGIGSDGRNTNYGDSVKGRFTISRDNSKDTLYLQMTSLRAEDTAFYYCVKGLDVLRFLDLSTPSGERLDAFDIWGQGTMVTVSS VL: DIVMTQSPSFLSASVGDRVTITCRASQGISNYLAWYQQKPGKAPHLLIYAASTLQSGVPSRFSGSGSGTEFTLTISSLQPEDFATYYCQQLNSYPLFTFGPGTKVDIE",binds
4,"C77G12 mAb (antibody, V domains shown, also called Group 3 mAb; fusion peptide-specific mAb) VH: EVQLVESGGGVVQPGRSLRISCAVSGFTFGSYAMHWVRQAPGKGLEWVGVMSSDGHNEYYADSVKGRFTISRDNSRNKLYLEMNNLRVDDTAVFYCARGSDYVDDSPPLHYWGQGTLVTVSS VL: DIQLTQSPSSLSASIGDRVTITCRASQDIANKLAWFQQAPGKAPKSLIYAASRLQSGVPSQFSGSGSGTDFTLTIESLQAGDFATYFCQQYDSFPFTFGPGTKVDVK",binds
5,"C13C9 mAb (antibody, V domains shown, also called Group 3 mAb; fusion peptide-specific mAb) VH: EVQLVQSGPEVKKPGTSARVSCKASGFTSKNTALQWVRQARGQPLEWMGWIDISNYITNYAQKFRGRLTITWDLSASMAYMELSSLRSEDTAVYYCAAVGKDDDVLTGGNKYFDHWGQGTLVTVSS VL: SYELTQPPSVSVSPGQTARITCSGDALPKKYAYWYQQKSGQAPVLVIHEDDKRPSGIPGRFSASSSGTTATLTISGAQVEDEADYYCYSTDTNDNHAFGSGTKLTVL",binds
